Assay [1] concerns the target T1, human CD25 expressed on cells (human, UniProt P01589 22-272).
T1 sequence: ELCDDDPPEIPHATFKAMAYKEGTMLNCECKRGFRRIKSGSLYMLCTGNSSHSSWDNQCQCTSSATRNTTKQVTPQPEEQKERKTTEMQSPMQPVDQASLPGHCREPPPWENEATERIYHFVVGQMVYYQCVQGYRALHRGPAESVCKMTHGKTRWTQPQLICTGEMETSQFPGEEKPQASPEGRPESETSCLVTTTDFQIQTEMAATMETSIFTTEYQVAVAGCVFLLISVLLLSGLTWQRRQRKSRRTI
In words: flow cytometry on CD3/CD28 bead activated human Pan T cells, gated on CD8+ T cells. A general note: A flow cytometer gives signals particle by particle.
Description: (§1) Binding to CD25 expressing activated human and Cynomolgus monkey PMBC was examined by staining test articles (anti-CD25 primary antibodies) with 20 μg/ml antibodies followed by semi-log dilution series (7-point) for 30 minutes on ice. This was followed by staining with a secondary antibody (rabbit anti-human Fcg F(ab′)2- (Jackson ImmunoResearch)) concentration of 5 μg/ml for 30 minutes on ice. All samples were stained in triplicates. To minimize cross-linking induced cell death mediated by binding of the secondary antibody, cell lines were examined in staining cohorts of 4 test articles at a time. Live lymphocytes were gated using FSC vs SSC parameters by flow cytometry during sample acquisition. Mean fluorescence intensity (MFI) of gated CD4⁺ and CD8⁺ T cell subsets were plotted on an XY chart, graphing MFI against the log of the concentration, and the data fit to a non-linear regression curve from which the EC50 was calculated.

For assay [2], the target named is T2, recombinant human CD25 extracellular protein sequence (rhCD25) (human, UniProt P01589 22-240).
T2 construct: also called human CD25 antigen; target antigen
T2 sequence: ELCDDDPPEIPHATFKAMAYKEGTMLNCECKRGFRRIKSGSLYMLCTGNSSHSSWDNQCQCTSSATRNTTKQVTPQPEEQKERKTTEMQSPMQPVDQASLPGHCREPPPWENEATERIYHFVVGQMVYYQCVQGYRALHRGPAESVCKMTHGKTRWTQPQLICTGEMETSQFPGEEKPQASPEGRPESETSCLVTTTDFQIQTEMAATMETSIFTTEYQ
In words: ForteBio BLI; format not given; lower end of the stated Kd range. (In general: Biolayer interferometry detects binding as a change in optical thickness at a sensor tip.)

Assay [3] deals with T3, human CD25 antigen, Sino Biologicals cat no. 10165-H08H (human, UniProt P01589 22-213).
T3 construct: Bought protein; also called Sino biological (~20% dimer)
T3 sequence: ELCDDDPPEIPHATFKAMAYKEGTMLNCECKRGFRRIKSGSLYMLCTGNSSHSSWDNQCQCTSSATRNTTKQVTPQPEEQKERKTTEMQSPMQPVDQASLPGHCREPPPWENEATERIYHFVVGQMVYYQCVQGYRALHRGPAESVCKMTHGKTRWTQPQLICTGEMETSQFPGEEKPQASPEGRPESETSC
Description: SPR Biacore T200, antibody captured by anti-human Fab, CD25 in solution, Two State Reaction fit; column head 'Binding strength'; Sino Biologicals CD25, ~20% dimer; Two State Reaction fit. In general terms: SPR reads the build-up and loss of mass on a sensor chip optically.
Description: (§2) Binding of CD25 antibodies to human CD25 antigen was investigated by surface plasmon resonance using a BIACORE T200 instrument (GE Healthcare).
(§3) The flow cell was set to 25° C. and the sample compartment to 12° C. The CD25 antibody was captured by injecting a 3 μg/ml solution for 60 sec at a flow rate of 10 μl/min. Association of CD25 antigen was measured by injection of human CD25 solutions for 180 sec at a flow rate of 30 μl/min starting with a concentration of 1000 nM down to 1 nM in 1:10 dilution steps. The dissociation phase was triggered by switching from sample solution injection to running buffer and monitored for up to 600 seconds. The surface was regenerated by washing with two consecutive 1-minute injections of 10mM glycine pH 2.1 (provided by the kit) at a flow rate of 10 μl/min. Bulk refractive index differences were corrected by subtracting the response obtained from an anti-human Fab reference surface; blank injections are also subtracted (=double referencing).
(§4) For calculation of KD and kinetic parameters Biacore provided fitting models were used to obtain optimal curve fitting results. The 1:1 Langmuir fit was used for P1AA5872 and the Two State Kinetic fitting for CD25 from Sino Biologicals and R&D Systems.

Assay [4] has as its target T4, inhouse produced monomeric CD25 antigen (P1AA5872) (human, UniProt P01589 22-240, limits assumed).
T4 construct: also called Inhouse (0% dimer)
T4 sequence: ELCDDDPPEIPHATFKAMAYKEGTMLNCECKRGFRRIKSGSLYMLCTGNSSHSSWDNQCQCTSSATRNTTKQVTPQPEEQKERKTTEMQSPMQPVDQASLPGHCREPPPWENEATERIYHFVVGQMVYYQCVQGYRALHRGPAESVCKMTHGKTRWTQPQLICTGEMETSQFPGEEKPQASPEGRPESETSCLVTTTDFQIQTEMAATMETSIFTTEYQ
Description: SPR Biacore T200, antibody captured by anti-human Fab, monomeric CD25 in solution, 1:1 Langmuir fit; column head 'Binding strength'.
Description: as §2, §3, §4

Assay [5] concerns the target T1, human CD25 expressed on cells. Description: flow cytometry on CD3/CD28 bead activated human Pan T cells, gated on CD4+ T cells.
Description: as §1
Assay [6] deals with T5, recombinant human CD25 his tagged (human, UniProt P01589 22-240, limits assumed).
T5 construct: Loaded on Ni-NTA sensors at 20.83 nM; also called rhCD25-his; not shown: His tag
T5 sequence: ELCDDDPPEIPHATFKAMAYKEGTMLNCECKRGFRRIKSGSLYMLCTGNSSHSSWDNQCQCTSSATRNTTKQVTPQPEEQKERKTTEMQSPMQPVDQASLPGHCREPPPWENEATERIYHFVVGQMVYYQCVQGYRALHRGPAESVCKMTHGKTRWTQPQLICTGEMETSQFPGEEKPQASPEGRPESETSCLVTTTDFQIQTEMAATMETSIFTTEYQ
In words: ForteBio BLI, avidity format: rhCD25-His on Ni-NTA sensor, IgG in solution, 1:1 fit.

The target of assay [7] is T1, human CD25 expressed on cells. Description: flow cytometry on human in vitro differentiated Treg cells, Alexa Fluor 647 anti-human IgG secondary.
Description: Binding to CD25 expressing in vitro differentiated Tregs was examined by staining test articles (anti-CD25 primary antibodies) with 30 μg/ml antibodies followed by semi-log dilution series (7-point) for 30 minutes on ice. […] All samples were stained in duplicates. Live cells were gated using FSC vs SSC parameters by flow cytometry during sample acquisition. Mean fluorescence intensity (MFI) of stained cells were plotted on an XY chart, graphing MFI against the log of the concentration, and the data fit to a non-linear regression curve from which the EC50 is calculated.
Assay [8] has as its target T6, human CD25 antigen, R&D Systems cat no. 223-2A/CF (human, UniProt P01589 22-213, limits assumed).
T6 construct: Bought protein; also called R&D Systems (~10% dimer)
T6 sequence: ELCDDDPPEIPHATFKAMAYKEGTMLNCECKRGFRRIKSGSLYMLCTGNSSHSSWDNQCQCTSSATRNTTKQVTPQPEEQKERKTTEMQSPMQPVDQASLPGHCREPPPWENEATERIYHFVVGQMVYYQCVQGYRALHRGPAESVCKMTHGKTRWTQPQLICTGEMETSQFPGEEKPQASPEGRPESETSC
In words: SPR Biacore T200, antibody captured by anti-human Fab, CD25 in solution, Two State Reaction fit; column head 'Binding strength'.
Description: as §2, §3, §4

Assay [9] deals with T2, recombinant human CD25 extracellular …. In words: ForteBio BLI; format not given; upper end of the stated Kd range.

B1: aCD25-a-674 (antibody, V domains shown)
VH: QVQLVQSGAEVKKPGASVKVSCKASGYTFTSYYMHWVRQAPGQGLEWMGIINPSGGSTSYAQKFQGRVTMTRDTSTSTVYMELSSLRSEDTAVYYCARGGAEYIPAEYFQHWGQGTLVTVSS
VL: EIVMTQSPATLSLSPGERATLSCRASQSVSSYLAWYQQKPGQAPRLLIYDASNRATGIPARFSGSGSGTDFTLTISSLEPEDFAVYYCQQRPFLPTFGGGTKVEIK
notes: not shown: human IgG1 heavy chain constant region, P01857; human kappa light chain constant region, P01834
For the molecule B1, the “EC50 (read off the curve)” value in assay [1] is about 1 mg/L; in [5], about 0.9 mg/L; in assay [7], about 2 mg/L. Moreover, the Kd in [2] is at least 0.0001 µM; in [3], 0.04 µM; in assay [4], 0.517 µM; in assay [6], 0.00212 µM; in [8], 0.048 µM; in assay [9], at most 0.01 µM.

By EC50 (read off the curve) is commonly meant the concentration that produces a half-maximal response.

The values are drawn from US20210009704A1 (TUSK THERAPEUTICS, published 2021).
